Laboratory results published in the supplement of paper PMC9942255.
“And” between values parts separate entries of the source, which are not always exact repeats. Identical values can stand only once.

Tested on: Bacillus subtilis DB104 (SP-AmyQ fusion secretion)
Assay: AmyQ secretion efficiency, weighted average sort bin (1 = best secretion, 10 = worst) (bin number (weighted average, 1-10)); higher = lower secretion efficiency
In short: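 With fluorescein-starch as substrate, a B. subtilis DB104 library expressing mature AmyQ fused to designed signal peptides (integrated at amyE) was encapsulated at about 0.3 cells per ~65 nL alginate bead. After about 13 h at room temperature, beads were nile red stained, and occupied beads were sorted by large-particle flow cytometry into 10 equally populated bins by green/red fluorescence ratio. Illumina sequencing of the amplicons in each bin was used to calculate the secretion score, which is the read-frequency-weighted average bin number, normalised to beads per bin, with low-abundance sequences left out.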

Sequence: MKRFILVLSFLSIIVKRRRRRTNASPM
- AmyQ secretion efficiency: 7.31

Sequence: MKKRLIAPMLLSAASLAFFAALIFILLLTFMSGSAQAAAY
- AmyQ secretion efficiency: 3.37

Sequence: MFKKHTRKRKIIFLLASAVLAKPIEAHTV
- AmyQ secretion efficiency: 7.04

Sequence: MKVLLSALLLLLFALVALSFEPSASGKKL
- AmyQ secretion efficiency: 3.74

Sequence: MKKTIMSFVAVAALSTTAFGAHPTASAKEI
- AmyQ secretion efficiency: 2.53

Sequence: MKIRKILLSSALSFGMLRKRVPALAAGT
- AmyQ secretion efficiency: 6.53

Sequence: MLKKIALTLCPAIVGSLLFFTAPASMHVS
- AmyQ secretion efficiency: 4.09

Sequence: MNKPTKLFSTLALAAGMTKDKTTSAGTIHAQQP
- AmyQ secretion efficiency: 7.85

Sequence: MPYLKRGGLLLVTGLFMSLFAVTATASAQTG
- AmyQ secretion efficiency: 1.51

Sequence: MTMLLAAGIIGLLTVSIASPSFAAEK
- AmyQ secretion efficiency: 5.35

Sequence: MKVPKTMLLSTAAGLLLSLKKRSVSAHYV
- AmyQ secretion efficiency: 6.92

Sequence: MLKKKWMVGLLAGCLAAGGFSYNAFITEN
- AmyQ secretion efficiency: 6.43

Sequence: MKKRLIGFLVLVPALIEDEEELIEANKK
- AmyQ secretion efficiency: 7.82

Sequence: MKSKGSIMACLILFSFTITTFINTETFSAFSN
- AmyQ secretion efficiency: 7.43

Sequence: MKKKLAAGLTASAIVGTTLVVTPAECATI
- AmyQ secretion efficiency: 4.47

Sequence: MNLRKILLSSALSLGMLPSAAPVLATSS
- AmyQ secretion efficiency: 2.71

Sequence: MRSYIKVLTMCFLGLILFVPTALVDNS
- AmyQ secretion efficiency: 5.38

Sequence: MFKKLLLATSALTFSLSLVLPLDGHAKAQSV
- AmyQ secretion efficiency: 1.96

Sequence: MLCVMMLLFSAIASFPVSAQQKDQ
- AmyQ secretion efficiency: 6.18

Sequence: MKRIRIPMTYTGTAALTIAPLSFASAEEN
- AmyQ secretion efficiency: 7.36

Sequence: MKLKSKYKGGCYAAAAIFTAAGVSANAEALDF
- AmyQ secretion efficiency: 7.31

Sequence: MKSCKQLIVCSLAAILLLIPSVSFAKRK
- AmyQ secretion efficiency: 2.42

Sequence: MMKKGSLFFLLAGALTATVLFGTCAVDVPGIISPKTAEAASQ
- AmyQ secretion efficiency: 3.32

Sequence: MIVIILLFISIIVFLVVTIQPQPS
- AmyQ secretion efficiency: 8.71

Sequence: MKKWLIIAVSLAIAIVLFMYTAGEAKAAGM
- AmyQ secretion efficiency: 2.74

Sequence: MKLWMRKTLVVLFTIVTFGLVSPPAAVMADKP
- AmyQ secretion efficiency: 2.79

Sequence: MKRKRLLSTLLIGIMLLTFAPSAFAKQD
- AmyQ secretion efficiency: 1.87

Sequence: MKLAKRINMVSALTPSTTLAITAKAKEL
- AmyQ secretion efficiency: 7.42

Sequence: MRSYIKVKKKCRLGLILFVPTALADNS
- AmyQ secretion efficiency: 6.78

Sequence: MKKWMAGLFLAAAVLLCLMIQGASS
- AmyQ secretion efficiency: 3.95

Sequence: MKSKWMSGLLLVAVGFSFTQVMDHAGET
- AmyQ secretion efficiency: 6.14

Sequence: MKKIGLLFMLCLAALFTIGFPAQQLDAAEA
- AmyQ secretion efficiency: 2.04

Sequence: MKKWMITIAMLKKKRRRLFVFISPLKSHKT
- AmyQ secretion efficiency: 7.47

Sequence: MMIKQCVICLSLLVFGTIAIAHAEET
- AmyQ secretion efficiency: 4.16

Sequence: MKLKKRVSMFLVALTMCGGLFVTPAKAVTD
- AmyQ secretion efficiency: 3.07

Sequence: MKKIMSAFVGMVLLTIFCKKRKRRASAAYD
- AmyQ secretion efficiency: 7.21

Sequence: MRIFKKAVFVIMISFLIATVNVNTAHGAID
- AmyQ secretion efficiency: 5.43

Sequence: MVKKWLIQFAVMLSVLSTFTYSASIVGV
- AmyQ secretion efficiency: 8.01

Sequence: MTKVMLATALFLGLTPAGANAADL
- AmyQ secretion efficiency: 5.8

Sequence: MFNRLFRGCGGKQKIMAFTLPNSVYAQKP
- AmyQ secretion efficiency: 7.39

Sequence: MKVLLSALLLLLFAFEPSASTKKL
- AmyQ secretion efficiency: 5.63

Sequence: MKIRKILLMMALFFMMLISAVPALAAGT
- AmyQ secretion efficiency: 2.45

Sequence: MIVIKRKRKRIIVFLSVIQPQPS
- AmyQ secretion efficiency: 8.52

Sequence: MKRKSMSFSLSNLLSSLAISALSLGLLVSAPTASFAAES
- AmyQ secretion efficiency: 2.5

Sequence: MRSYIKVLTMCFLGLILFVPTALLDNS
- AmyQ secretion efficiency: 5.28

Sequence: MPYLKRVLLLLVTGLFMSLFAVTATFSAQTG
- AmyQ secretion efficiency: 4.6

Sequence: MKMKSGMEQAVSVLLLLSRLPVQASLTSH
- AmyQ secretion efficiency: 7.82

Sequence: MKLWMRKTLVVLFTIVTFGLVSPPAALMTDKP
- AmyQ secretion efficiency: 2.85

Sequence: MTMSSGMSSILAVSVLLLLSRLPVQASLTSE
- AmyQ secretion efficiency: 4.1

Sequence: MKKLLAAGIIGLLTVSIASPSFVAEK
- AmyQ secretion efficiency: 6.79

Sequence: MRNLTKTSLLLAGLCTAAQMVFVTHASAAPS
- AmyQ secretion efficiency: 1.69

Sequence: MRPVFPLILSAVLFLSCFFGARQTEASPSKR
- AmyQ secretion efficiency: 2.1

Sequence: MTKRGIQAFAGGIILATAVLAAVFYLTDEDQAAAV
- AmyQ secretion efficiency: 5.97 and 6.45
